We go through two molecules from publication PMC10570696, “DNA-translocation-independent role of INO80 remodeler in DNA damage repairs” (The Journal of Biological Chemistry, 2023).

Experiment [1] deals with T1, INO80-C ΔN sub-complex (Saccharomyces cerevisiae, UniProt P53115).
T1 construct: ten-subunit sub-complex; Ino80 truncated (residues 470-1490, printed 'residue 470 from 1490') with C-terminal Twin-Strep tag; MultiBac baculovirus, High Five insect cells; with Actin-related protein 5; Chromatin-remodeling complex subunit IES6; Ino eighty subunit 2; RuvB-like protein 1; RuvB-like protein 2; Actin-related protein 4; Actin-like protein ARP8; Actin; Ino eighty subunit 4
Put plainly: NADH-coupled ATPase assay (pyruvate kinase / lactate dehydrogenase), absorbance at […] nm. It counts as biochemical. The following applies: nucleosome-stimulated (0-320 nM 0N80 mononucleosomes, Xenopus laevis histones); 80 nM complex; 1 mM ATP (2 mM stated elsewhere in the source); 2 mM MgCl2, 50 mM NaCl, pH 8, 30 °C.

Experiment [2] concerns the target human APE1 endonuclease (AP-endonuclease 1) (human) (UniProt P27695).
For experiment [3] the target is unchanged. The source holds these as a separate data set.

Sequence of human APE1 endonuclease (AP-endonuclease 1) (human) (P27695 whole entry): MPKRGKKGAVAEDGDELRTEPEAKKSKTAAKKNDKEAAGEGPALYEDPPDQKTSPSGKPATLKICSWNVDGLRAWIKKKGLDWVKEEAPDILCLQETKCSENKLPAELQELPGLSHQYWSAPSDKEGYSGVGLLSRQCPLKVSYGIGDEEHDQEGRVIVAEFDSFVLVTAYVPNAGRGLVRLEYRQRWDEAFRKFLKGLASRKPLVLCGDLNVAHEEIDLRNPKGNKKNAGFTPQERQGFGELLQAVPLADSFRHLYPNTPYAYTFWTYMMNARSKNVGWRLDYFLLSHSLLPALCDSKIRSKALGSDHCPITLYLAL

In the case of `Nc1ncnc2c1ncn2[C@@H]1O[C@H](COP(=O)(O)OP(=O)(O)OP(=O)(O)O)[C@@H](O)[C@H]1O` [ATP], the “NADH-coupled ATPase assay (pyruvate kinase / lactate dehydrogenase), absorbance” value in experiment [1] is “conducted measurements of nucleosome-stimulated ATPase activity of INO80-C ΔN through a NADH+-coupled assay”. Take “endogenous yeast INO80-C complex (from UniProt P53115 1-1489; P53946 1-755; P32617 1-166; P40154 1-320; Q03940 1-463; Q12464 1-471; P80428 1-489; Q12386 1-881; P60010 1-375; Q08561 1-116; P35189 1-244; Q03435 1-203; P43579 1-692; Q12345 1-250; P40060 1-125)”: the APE1 incision assay after pre-treatment of the APE1-INO80-C mixture at 37 °C for 20 min, with ATP: proportion of incised nucleosomes in experiment [2] worked out at 70%. The APE1 incision assay: percent of dTHF(SHL-6) nucleosomes (100 nM) cleaved over 30 min by 5 nM APE1 with 25 nM INO80-C, with ATP (approximately 40% with APE1 alone) in experiment [3] was found to be 56%.
